Assay results from publication doi:10.1101/2025.04.04.647159.

Target: Candidatus Liberibacter asiaticus pyrophosphate-fructose-6-phosphate 1-phosphotransferase (Candidatus Liberibacter asiaticus)
Assay: SEC

## Candidatus Liberibacter asiaticus pyrophosphate-fructose-6-phosphate 1-phosphotransferase (enzyme)
  stoichiometry N: 4
